Source: the nanobody polyreactivity screen of Harvey et al. (2022)

Experiment: yeast display, Sf9 membrane polyspecificity reagent, FACS + sequencing; frameworks hold sequencing errors
Summary of the method: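 Nanobodies came from a synthetic yeast display library in Saccharomyces cerevisiae BJ5465, induced with galactose for 36–48 hours and stained for 1 hour at 4 °C with 10% biotinylated, detergent-solubilized Sf9 membrane reagent. Cells were enriched on streptavidin microbeads and then FACS-sorted, with low and high (top ~1%) gates set on anti-HA fluorescence for expression and streptavidin fluorescence for reagent binding. Each polyreactivity label reflects the gate a clone came from. Genes were amplified by colony PCR, sequenced by MiSeq 2 × 250 and filtered by CDR length.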
In the case of “QVQLVESGGGLDQAGVSLRLSCAASGNIFSWNTMGWYRPAPGKERELVAAITFRGTRTFYADSVKGRFTISRDNAKNNVYLHMNSLKPEDTAVYYSAARYYYSYSLGYDYWGQGTQVTLSS”, the “polyreactivity (PSR sort gate)” value is reported as “high polyreactivity”.
With “QVQLVESGGGLVQAGGSLRLSCAASGIIFNTYAMGWYRQAPGKERELVAAIDSRDASTYADSVKGRFTISRDNAKNTVYLQMNSLKPEDTAVYYCAATHIVDLISEVYYWGQGTQVTVSS” the “polyreactivity (PSR sort gate)” value was “low polyreactivity”.
With “QVQLVESGGGLVQAGGSLRLSCAASGSTFSAYTMGWYRQAPGKERELVARITNGGSTYYADSVKGRFTISRDNAKNTVYLQMNSLKPEDTAVYYCAAQLGWWGSGYWGQGTQVTVSS” the “polyreactivity (PSR sort gate)” value was “high polyreactivity”.
In the case of “QVQLVESGGGLVQAGGSLRRSCAAYGRIFTMNAMGWYRQAPGKESELVAVISRSGCSTYYADSVKGRFTISRDNAKNTVYLQMNSLNPEDTAVYYCNAVPIYYAWRRNKPFDYWGLGTQVTVSS”, the “polyreactivity (PSR sort gate)” value is reported as “low polyreactivity”.
In the case of “QVQLVESGGGLVQAGGSLRLSCAASGSTFKAYAMGWYRQAPGKQRELVAAITKSGGRTYYADSVKGRFTISRDNAKNTVYLQMNSLKPEDTAVYYCAAVFRPDSSAYRYYYWGQGTQVTVSS”, the “polyreactivity (PSR sort gate)” value is reported as “high polyreactivity”.
For “QVQLVESAGGLVQAGGSLRLSCAASGNTFDPNAMGWYRQAPGKEREFVAAISTIGSSTYYADSVKGRFTISRDNAKYTVYLQMNSLNPEVTAVYYCAKGIYVVYGIDDYWGQGTQVTLSS”, the “polyreactivity (PSR sort gate)” value was “low polyreactivity”.
In the case of “QVQLVESGGGLVQAGGSLRLSCAASGRTFVPYAMGWYRQAPGKEREFVAAISSRVGSTYYADSVKGRFTISRDNAKNTVYLQMNSLKQEDTAVYYCNAPFKPAGFYSAWKYDYWGQGTQVTVSS”, the “polyreactivity (PSR sort gate)” value is reported as “low polyreactivity”.
In the case of “QVQLVESGGGLVQAGGSLRLSCAASGSIFEYNTMGWYRQAPGKERELVATISWSGDSTYYADSVKGRFTISRDNAKNTVYLQMNSLKPEDTAVYYCAAQRGAPVDGKSDYWGQGTQVIVSS”, the “polyreactivity (PSR sort gate)” value is reported as “low polyreactivity”.
For “QVQLVESGGGLVQAGGSLRLSCAASGSTFWVNARGWYRQAPGKERELVAAIRRGGSTKYADSVKGRFTISRDNAKTTVYLQMNSLKPEDTAVYYCAADSYRTPAIYDYWGQGTQVTVSS”, the “polyreactivity (PSR sort gate)” value was “high polyreactivity”.
For “QVQLEESGGGLVQAGGRLRLSCAASGRIFAVNAMGWYRQAPGKERELVASITSRGGSTYYADSVYGRFTISRDNAKNTVYLQMPSLKPEDTAVDYCASPYYSLTTNDYDYSGQGTQVTVSS”, the “polyreactivity (PSR sort gate)” value was “high polyreactivity”.
For “QVQLVESGGGLVQAGGSLRLSCAASGGIFGTYTMGWYRQAPGKERELVAAIRSSSGRTYYADSVKGRFTISRDTAKNTVYLQMNSLKPEDTAVYYCNRAYTIQDDYWGQGTQVTVSS”, the “polyreactivity (PSR sort gate)” value was “high polyreactivity”.
For “QVQLVESGGGLVQAGGSLRVSCAASGSTFDPNAMGWYRQATGKERELVADIDSGGSTYYADSVKGRFTISRDNAKNTVYLQMNSMKPEDTAVYYCATKQPTWVPRVIISYTKFDYWGQGTQVTVSS”, the “polyreactivity (PSR sort gate)” value was “low polyreactivity”.
With “QVQLVESGGGLVQAGGSHRLTCAASGRTFIFYAMGWYRPEPGKERELVAAITYSGTSTYYADSVKGRFTISRDNAKNTVYLQMNSLKPEDTAVYYCAKDGQRDANYYWGQGTQVTVSS” the “polyreactivity (PSR sort gate)” value was “low polyreactivity”.
With “QVQLVESGGGLVQAGGRLSLSSAASGITFRNYAMGWYRQAPGKERQLVAAISRRGGSTYYADSVKGRFTISRDNAKNTVYLQMNSLKPEDTAVYYCAKSPDTAKEYDYWGQGTQVTVSS” the “polyreactivity (PSR sort gate)” value was “high polyreactivity”.
For “QVHLVESGGGLVQAGGSLLLSCAASGRILGPNAMGWYIQAPGKERELVAAINSGGSTNYADSVKGRFTISRDNAKNTVYLQMNSLKAEDTAVYYCNAVYGVYDFNYWGQGTQVTVSS”, the “polyreactivity (PSR sort gate)” value was “low polyreactivity”.
With “QVQLVESGGGLVQAGGSLRLSCAASGRISQIYAMGWYRQAPGTERELVASISSSGSRTYYADSVKGRFTISRDNAKNTVYLQMNSLKPEDTAVYYCAARWWARSNRYDYWGQGTQVTVSS” the “polyreactivity (PSR sort gate)” value was “high polyreactivity”.
For “QVQLVESGGGLVQAGGSLRLSCAASGFTFTYYAMGWYRQAPGKERELVAAISWNGGSTYYADSVKGRFTISRDNAKNTVYLQMNSLKPEDTAVYYCNAYDYQYFYGYEYDYWGQGTQVTVSS”, the “polyreactivity (PSR sort gate)” value was “high polyreactivity”.
With “QVQLVESGGGLVQAGGSLRLSCAASGYIFLRNAMGWSRQAPGKERELVASISSDDTSTHYADSVKGRFTISRDNAKNTVYLQMNSLKPEDTAVYYCAARNTPAYIDYNYWGQGTQVTVSS” the “polyreactivity (PSR sort gate)” value was “low polyreactivity”.
For “QVQLVESGGGLVQAGGSLRLSCAASGFSFRYYTMGWYRPAPGKERELVARITWSGRITDYADSVKGRFTISRDNPKNTVYLQMNSLKPEDTAVSYCNAERRWAAYDYCGQGTQVTVSS”, the “polyreactivity (PSR sort gate)” value was “high polyreactivity”.
For “QVQLVESGGGLVQAGGSLRLSCAASGRTFVVYAMGWYGQAPGKERELVAGITTRVGSTYYADSVKGRFTISRDNAKNTVYLQMNSLKPEDTAVYYCAARGSRYVGRVRYDYWGQGTQVTVSS”, the “polyreactivity (PSR sort gate)” value was “high polyreactivity”.
With “QVQLVESGGGLVQAGGSLRLSCAASGLTFAYYAMGWYRQAPGKERELVAVISSAGSTYYADSVKGRFTISRDNAKNTVYLQMNSLNPEDTAVYYCAARAPSSISQTRGMYYWGQGTQVTVSS” the “polyreactivity (PSR sort gate)” value was “high polyreactivity”.
In the case of “QVQLVESGGGLVQAGGSLRLSCAASGLILTRYAMGWYRQAPGKERELVAAITKNGGSTYYADSVKGRFTISRDNAKNTVYLLMNSLKPEDTAVYYCNVCPRRVDRSRAASSDYDYWGQGSQVTVSS”, the “polyreactivity (PSR sort gate)” value is reported as “high polyreactivity”.
In the case of “QVQLVESGGGLVQAGGSLRLSCAASGRTFRVYAMGWYRQAPWKERELVAAISGRGGRTYYADSVKGRFTISRDNAKNTVYLQMNSLKPEDTAVYYCTADVGVYHDDYWGQGTQVTVSS”, the “polyreactivity (PSR sort gate)” value is reported as “high polyreactivity”.
For “QVQLVESGGGLVQAGGSLRLSCAASGFTFSYYAMGWYRQAPGKERELVAAISWNGGSTYYADSVKGRFTISRDNAKNTVYLQMNCLKPEDTAVYYCAADSLLYYYDTGYEYWGQGTQVTVSS”, the “polyreactivity (PSR sort gate)” value was “high polyreactivity”.
With “QVQLVESVGGLVQAGGSLRLSCAASGSIFDVNAMGWYRQAPGKERELVAAITSSGGSTYYADSVKGRFTISRDNAKNTVYLQMNSLKPEDTAVYYCAAYSLYTMYWGQGTQVTVSS” the “polyreactivity (PSR sort gate)” value was “low polyreactivity”.
In the case of “QVQLVESGGGLVQAGCSLRLSFAASGFSFRRYALGSYIPAPGKERELVAAITNSGGSTYYADSVKGRFTISRDNAKNSVYLQLNSLKPEDTAVYYCVALRSACAYDYWGQGTQVTVSS”, the “polyreactivity (PSR sort gate)” value is reported as “high polyreactivity”.
For “QVQLVESGGGLVQAGGSLRLSCAAYGSTFRYYAMGWYRQAPGKERELVAAITSSGGSTYYADSVKGRFTISRDNAKNTVFLQMNSLKPEDTAVYYCAVAVKNWVKLNYWGQGSQVTVSS”, the “polyreactivity (PSR sort gate)” value was “high polyreactivity”.
With “QVQLVESGGGLVQAGGSLRLSCAASGRTFIPYGMGWYRQAPGKERELVAAIRDGGSTNYADSVKGRFTISRDNAKNTVYLQMNSLKPADTAVYYCNADLPVYVDYINGGYGYWGQGTQVTVSS” the “polyreactivity (PSR sort gate)” value was “low polyreactivity”.
With “QVQLVESGGGLVQAGGSLRLSCAASGIIFPYYAMGWYRQAPGKERELVAAISIDGSTNYAVSVKGRFTISRDNAKNTVYLQMNSLKPEDTAVYYCNTTAFSTYQVGFLYDYWGQGTQVTVSS” the “polyreactivity (PSR sort gate)” value was “low polyreactivity”.
In the case of “QVQLVESGGGLVQAGGSLRLSCAASGSIFKYSAMAWYRPAPGKERELVATITSGGRTNYADSVKGRFTISRDNAKNTVYLQMNSLKPEDPAVYYCAAGSYYPYHSTTRWYVYWGQGTQVTVSS”, the “polyreactivity (PSR sort gate)” value is reported as “high polyreactivity”.
In the case of “QVHLVESVGGLVQAGGSLRLSCAASGSIFYYNAMGWYRQAPGKERELVAAISSGGSTNYADSVKGRFTISRDNAKNTVYLQMNSLKPEDTAVYYCATGWSWYHPDYDYWGQGTQVTVSS”, the “polyreactivity (PSR sort gate)” value is reported as “low polyreactivity”.
With “QVQIVESGGGLVQAGGSLRLSCAASGSTFLTNTMGWYRQAPGKERELVAAITLRGGRTYYADSVKGRFTISRDNAKNTVYLQMNSLRPEDTAVYYCNARNYYYPSDRDYWGQGTQVTVSS” the “polyreactivity (PSR sort gate)” value was “low polyreactivity”.
With “QVQLQESGVGLVQAGGSLRLSCAASGYITARDAMVWYRQAPGKEREFVATIASGTTTYYADSVKGSFTISRDNEENTVYLQTNSLKPEDTAVYYCAAPTIQIYPFYYWGQGTQVTVSS” the “polyreactivity (PSR sort gate)” value was “high polyreactivity”.
For “QVQLVESGGGLVQAGGSLRLSCAASGFTFRRNAMGWYLQAPGKERELVARISSGGSTNYADSVKGRFTISRDNAKNTVYLQMNSLKPEDSAVYYCATGKGPYPYRQRYGYWGQGTKVTVSS”, the “polyreactivity (PSR sort gate)” value was “high polyreactivity”.
In the case of “KVQLVESGGGLFQAGGSLGLSCAPSGNTFYHYAMGWYRQSPGKERELVAGIRYNGGSTYYADSVKGRFTISRDNAKNTVYLHMKSLKPEDTAVYYCATIGYTGYAYRYGYWGQGTQVTVSS”, the “polyreactivity (PSR sort gate)” value is reported as “high polyreactivity”.
For “QVHLVESGGGLVQAGGSLRLSSAASGFIFLQYAMGWYRQAPGKEREFVAVISRSGGGTYYADSVKGRFTISRDNAKNTVYLQMNSLKPEDTAVYYCAALGATRSRYDYWGQGTQVTVSS”, the “polyreactivity (PSR sort gate)” value was “high polyreactivity”.
With “QVQLVESGGGLVQAGGSLRLSCAASGITYSGNAMRWYRQAPAKERELVAAISGRGGSTYYADSVKGRFTISRDNAKNTVYLLMNSLKPDDTAVYYCNADVYPYKLALPAGMGYWGQGTQVTVSS” the “polyreactivity (PSR sort gate)” value was “high polyreactivity”.
With “QVHLQDSGGGLVKAGGSLRMSCAASGYIFGSGSMGWFRQAPGKERELVATINNGSSTYYADSVKGRFTISRDNAKNNVYLQMNSLKAEATAVYYCAVYLYRLTFFYYWGQGNQVTVSS” the “polyreactivity (PSR sort gate)” value was “high polyreactivity”.
In the case of “QVQLVESGGGLVQAGGSLRLSCAASGSTFQSYAMGWYRQAPGKERELVAAIDIGDSTYYADSVKGRYTISRDNAKNTVYLQMNSLKPEDTAVYYCAADDEDVLFDYWGQGTQVTVSS”, the “polyreactivity (PSR sort gate)” value is reported as “low polyreactivity”.
With “QVQLVETGGGLVQAGGSLRLSCAASGRIFWRNDMGWYRQAPGKERELVAAISGSGGSTSYADSVKGRFTISRDNAKNTVYLQLNSLKPEDTAVYYFAADSESVGYEYWGQGTQVTVSS” the “polyreactivity (PSR sort gate)” value was “high polyreactivity”.
For “QVQLVESGGGLVQAGGSLRLSCAASGSTFWSYAMGWYRPAPGKERELVAAITSGGRTYYADSVKGRFTISRDNAKNTVYLQMNSLKPEDTAVYYCAAEGSVGLYGLIMHYWGQGTQVTVSS”, the “polyreactivity (PSR sort gate)” value was “high polyreactivity”.
With “QVQLVESGGGLVQAGGSLRLSCAASGGTFQDYGMGWYRQAPGKERELVAAITWSGGSTYYADSVKGRFTISRDNAKNTVYLQMNSLKPEDTAVYYCAAVYADVYLYLTAYDYWGQGTQVTVSS” the “polyreactivity (PSR sort gate)” value was “low polyreactivity”.
In the case of “QVQLVESGGGLVQAGGSLRFSCAASGYIFSLNGRGWYRQAPGKERELVAAISSSGGRTYYADSVKGRFTISRDNAKNTVYLQMNSLKPEDTAVYYCAAEVYLSTYYQDMNYWGQGTQVTVSS”, the “polyreactivity (PSR sort gate)” value is reported as “high polyreactivity”.
